Reference: publication PMC7418988, “IgaA negatively regulates the Rcs Phosphorelay via contact with the RcsD Phosphotransfer Protein” (PLoS Genetics, 2020)

B1: IgaA fused to the T18 or the T25 fragment of adenylate cyclase (natural protein, E. coli, UniProt P45800 1-711, looked up)
chain: MSTIVIFLAALLACSLLAGWLIKVRSRRRQLPWTNAFADAQTRKLTPEERSAVENYLESLTQVLQVPGPTGASAAPISLALNAESNNVMMLTHAITRYGISTDDPNKWRYYLDSVEVHLPPFWEQYINDENTVELIHTDSLPLVISLNGHTLQEYMQETRSYALQPVPSTQASIRGEESEQIELLNIRKETHEEYALSRPRGLREALLIVASFLMFFFCLITPDVFVPWLAGGALLLLGAGLWGLFAPPAKSSLREIHCLRGTPRRWGLFGENDQEQINNISLGIIDLVYPAHWQPYIAQDLGQQTDIDIYLDRHVVRQGRYLSLHDEVKNFPLQHWLRSTIIAAGSLLVLFMLLFWIPLDMPLKFTLSWMKGAQTIEATSVKQLADAGVRVGDTLRISGTGMCNIRTSGTWSAKTNSPFLPFDCSQIIWNDARSLPLPESELVNKATALTEAVNRQLHPKPEDESRVSASLRSAIQKSGMVLLDDFGDIVLKTADLCSAKDDCVRLKNALVNLGNSKDWDALVKRANAGKLDGVNVLLRPVSAESLDNLVATSTAPFITHETARAAQSLNSPAPGGFLIVSDEGSDFVDQPWPSASLYDYPPQEQWNAFQKLAQMLMHTPFNAEGIVTKIFTDANGTQHIGLHPIPDRSGLWRYLSTTLLLLTMLGSAIYNGVQAWRRYQRHRTRMMEIQAYYESCLNPQLITPSESLIE
notes: IgaA (E. coli homolog, gene yrfF), five-pass inner membrane protein; Two fusions of the same protein, each chain with ONE of the two tags: T18 (pEAW1) or T25 (pEAW2); also called YrfF; IgaA-T18; source: bacterial two-hybrid (BACTH) fusion, expressed from a plasmid in E. coli BTH101; not shown: T18 fragment of Bordetella adenylate cyclase (Cya), C-terminal, kept; T25 fragment of Bordetella …
B2: RcsD fused to the T25 or the T18 fragment of adenylate cyclase (natural protein, E. coli, UniProt P39838 1-890, looked up)
chain: MRQKETTATTRFSLLPGSITRFFLLLIIVLLVTMGVMVQSAVNAWLKDKSYQIVDITHAIQKRVDNWRYVTWQIYDNIAATTSPSSGEGLQETRLKQDVYYLEKPRRKTEALIFGSHDNSTLEMTQRMSTYLDTLWGAENVPWSMYYLNGQDNSLVLISTLPLKDLTSGFKESTVSDIVDSRRAEMLQQANALDERESFSNMRRLAWQNGHYFTLRTTFNQPGHLATVVAFDLPINDLIPPGMPLDSFRLEPDATATGNNDNEKEGTDSVSIHFNSTKIEISSALNSTDMRLVWQVPYGTLLLDTLQNILLPLLLNIGLLALALFGYTTFRHFSSRSTENVPSTAVNNELRILRAINEEIVSLLPLGLLVHDQESNRTVISNKIADHLLPHLNLQNITTMAEQHQGIIQATINNELYEIRMFRSQVAPRTQIFIIRDQDREVLVNKKLKQAQRLYEKNQQGRMIFMKNIGDALKEPAQSLAESAAKLNAPESKQLANQADVLVRLVDEIQLANMLADDSWKSETVLFSVQDLIDEVVPSVLPAIKRKGLQLLINNHLKAHDMRRGDRDALRRILLLLMQYAVTSTQLGKITLEVDQDESSEDRLTFRILDTGEGVSIHEMDNLHFPFINQTQNDRYGKADPLAFWLSDQLARKLGGHLNIKTRDGLGTRYSVHIKMLAADPEVEEEEERLLDDVCVMVDVTSAEIRNIVTRQLENWGATCITPDERLISQDYDIFLTDNPSNLTASGLLLSDDESGVREIGPGQLCVNFNMSNAMQEAVLQLIEVQLAQEEVTESPLGGDENAQLHASGYYALFVDTVPDDVKRLYTEAATSDFAALAQTAHRLKGVFAMLNLVPGKQLCETLEHLIREKDVPGIEKYISDIDSYVKSLL
notes: RcsD, phosphotransfer protein of the Rcs phosphorelay, inner membrane protein, 890 aa; Two fusions of the same protein, each chain with ONE of the two tags: T25 (pEAW8) or T18 (pEAW7); also called RcsD-T25; RcsD-T18; source: bacterial two-hybrid (BACTH) fusion, expressed from a plasmid in E. coli BTH101; not shown: T25 fragment of Bordetella adenylate cyclase (Cya), C-terminal, kept; T18 fragment …

What was measured:
[1] = target: B2; test: two-hybrid; bacterial adenylate cyclase two-hybrid (BACTH): T18 and T25 fragments fused C-terminally to the two proteins, two plasmids in cyaA deficient E. coli BTH101; beta-galactosidase activity (Miller units) against fusion plus empty cognate vector as background; threshold for reliable interaction 4x over background; IgaA/RcsD also tested in rcsB, rcsC, rcsF and rcsD mutant hosts; in the rows the T25 fusion is …; conditions: partners not purified
[2] = target: B1; test: as above; conditions: partners not purified

B1 was tested, and the beta-galactosidase activity [1] was ≥ 1000 Miller units and the “beta-galactosidase activity, fold over either fusion paired with an empty cognate vector” value [1] was ~20 fold.

For B2, the “beta-galactosidase activity, fold over either fusion paired with an empty cognate vector” value [2] was ~20 fold and the “beta-galactosidase level, fold over the single construct (background) controls” value [2] was > 30 fold.
